For the experiment, the target named is Mac-1 (CD11b/CD18) integrin receptor on primary mouse microglia (mouse) (UniProt P05555). Put plainly: cell-based or functional assay.
Chain of Mac-1 (CD11b/CD18) integrin receptor on primary mouse microglia (mouse) (P05555 17-1153, chain 1 of 2): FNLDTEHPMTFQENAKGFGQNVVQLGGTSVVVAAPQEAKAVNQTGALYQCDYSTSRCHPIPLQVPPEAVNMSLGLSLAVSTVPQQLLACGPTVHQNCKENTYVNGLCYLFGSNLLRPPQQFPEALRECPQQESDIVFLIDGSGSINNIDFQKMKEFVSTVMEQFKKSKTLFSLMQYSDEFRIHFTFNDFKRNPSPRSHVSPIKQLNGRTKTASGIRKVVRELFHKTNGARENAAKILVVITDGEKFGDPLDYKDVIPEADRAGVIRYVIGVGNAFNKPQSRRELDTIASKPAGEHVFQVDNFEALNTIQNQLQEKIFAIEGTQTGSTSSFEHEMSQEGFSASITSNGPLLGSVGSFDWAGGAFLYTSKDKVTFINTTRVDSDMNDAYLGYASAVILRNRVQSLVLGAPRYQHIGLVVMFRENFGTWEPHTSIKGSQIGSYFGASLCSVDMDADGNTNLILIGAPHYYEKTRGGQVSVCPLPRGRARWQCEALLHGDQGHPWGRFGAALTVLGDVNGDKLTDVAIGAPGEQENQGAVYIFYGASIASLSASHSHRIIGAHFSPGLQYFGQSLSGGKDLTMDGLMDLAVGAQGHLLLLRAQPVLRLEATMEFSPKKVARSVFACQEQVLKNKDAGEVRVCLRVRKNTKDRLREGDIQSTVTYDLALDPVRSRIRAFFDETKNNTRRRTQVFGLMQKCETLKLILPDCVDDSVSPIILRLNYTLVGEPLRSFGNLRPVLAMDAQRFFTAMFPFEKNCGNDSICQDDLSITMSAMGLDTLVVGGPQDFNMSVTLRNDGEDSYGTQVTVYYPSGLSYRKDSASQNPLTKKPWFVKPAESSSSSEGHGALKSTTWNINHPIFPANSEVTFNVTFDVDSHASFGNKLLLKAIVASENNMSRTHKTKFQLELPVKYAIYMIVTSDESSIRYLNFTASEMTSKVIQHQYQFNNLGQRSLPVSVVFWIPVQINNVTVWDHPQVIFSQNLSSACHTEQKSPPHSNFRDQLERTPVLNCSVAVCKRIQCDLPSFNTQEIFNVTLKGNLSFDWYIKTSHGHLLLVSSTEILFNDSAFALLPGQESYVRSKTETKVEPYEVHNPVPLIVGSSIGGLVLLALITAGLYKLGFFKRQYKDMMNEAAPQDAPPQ
Chain of Mac-1 (CD11b/CD18) integrin receptor on primary mouse microglia (mouse) (P11835 24-771, chain 2 of 2, further chain): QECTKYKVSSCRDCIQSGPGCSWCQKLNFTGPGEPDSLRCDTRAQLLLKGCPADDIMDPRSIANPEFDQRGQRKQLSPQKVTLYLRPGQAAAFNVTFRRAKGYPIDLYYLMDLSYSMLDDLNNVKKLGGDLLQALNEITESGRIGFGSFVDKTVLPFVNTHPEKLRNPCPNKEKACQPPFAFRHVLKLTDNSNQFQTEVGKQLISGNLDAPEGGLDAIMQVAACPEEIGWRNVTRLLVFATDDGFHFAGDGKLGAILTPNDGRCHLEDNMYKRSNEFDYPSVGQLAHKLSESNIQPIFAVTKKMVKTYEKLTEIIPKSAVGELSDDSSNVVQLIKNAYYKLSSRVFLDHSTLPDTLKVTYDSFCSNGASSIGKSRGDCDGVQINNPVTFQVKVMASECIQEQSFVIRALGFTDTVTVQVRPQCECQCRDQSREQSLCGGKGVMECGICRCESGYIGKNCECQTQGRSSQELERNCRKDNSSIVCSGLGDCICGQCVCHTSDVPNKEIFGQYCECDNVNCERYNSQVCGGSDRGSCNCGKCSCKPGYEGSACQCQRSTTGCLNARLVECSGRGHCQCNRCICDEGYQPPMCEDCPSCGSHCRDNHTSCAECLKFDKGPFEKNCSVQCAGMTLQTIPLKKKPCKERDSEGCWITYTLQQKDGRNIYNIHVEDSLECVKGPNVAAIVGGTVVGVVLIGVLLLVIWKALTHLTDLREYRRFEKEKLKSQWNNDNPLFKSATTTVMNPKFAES

Take “M1/70, rat anti-CD11b neutralizing antibody”: the activated microglia (cells larger than 2,000 um^2), fibrinogen in the presence of M1/70 (% of activated microglia) turned out to be 18 and the phagocytosis of fibrinogen-treated microglia came to 40 % reduction.
“fibrinogen (Calbiochem), immobilized on tissue culture dishes (ligand)” showed an Akt phosphorylation in microglia (Western blot) of 24 fold; an activated microglia (cells larger than 2,000 um^2), fibrinogen treated cells (% of activated microglia) of 71; an activated microglia, fibrinogen treatment (% of activated microglia) of 71; an active RhoA in microglia (GST-Rhotekin pull-down, Western blot) of 1.9 fold.

Source of the values: US20110166075A1.
